Results: doi:10.1101/2021.01.07.425699
Where two headings read alike, the source gives them in different places.

Tests used:
AtLFYΔ40 (LEAFY) [1] = molecular target: T1, AtLFYΔ40 (LEAFY) (Arabidopsis thaliana, UniProt Q00958 41-420, del1-40); assay: EMSA
T1 sequence: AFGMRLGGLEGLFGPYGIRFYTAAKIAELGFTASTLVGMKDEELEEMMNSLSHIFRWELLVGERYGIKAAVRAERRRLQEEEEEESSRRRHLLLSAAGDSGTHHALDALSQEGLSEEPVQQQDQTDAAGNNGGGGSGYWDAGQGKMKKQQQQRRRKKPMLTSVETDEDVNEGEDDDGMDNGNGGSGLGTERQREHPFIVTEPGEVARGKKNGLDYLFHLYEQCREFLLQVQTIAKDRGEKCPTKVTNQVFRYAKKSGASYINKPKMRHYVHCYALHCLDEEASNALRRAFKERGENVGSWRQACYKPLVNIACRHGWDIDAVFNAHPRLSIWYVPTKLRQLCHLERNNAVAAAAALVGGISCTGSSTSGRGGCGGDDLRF

AtLFYΔ40 (LEAFY) [2] = molecular target: T1, AtLFYΔ40 (LEAFY); assay: EMSA; remark: listed apart in the source

B1: 601 free DNA (dsDNA)
DNA 1: ATCGATGTATATATCTGACACGTGCCTGGAGACTAGGGAGTAATCCCCTTGGCGGTTAAAACGCGGGGGACAGCGCGTACGTGCGTTTAAGCGGTGCTAGAGCTGTCTACGACCAATTGAGCGGCCTCGGCACCGGGATTCTGAT
DNA 2: ATCAGAATCCCGGTGCCGAGGCCGCTCAATTGGTCGTAGACAGCTCTAGCACCGCTTAAACGCACGTACGCGCTGTCCCCCGCGTTTTAACCGCCAAGGGGATTACTCCCTAGTCTCCAGGCACGTGTCAGATATATACATCGAT
binding result (AtLFYΔ40 (LEAFY) [1]): binds

B2: C2 free DNA (dsDNA)
DNA 1: ATCGATGTATATATCTGACACGTGCCTGGAGACTAGGGAGTAATCCCCTTGGCGGTTAAAACGCATTGACCAGCGGGTAATTGCGTTTAAGCGGTGCTAGAGCTGTCTACGACCAATTGAGCGGCCTCGGCACCGGGATTCTGAT
DNA 2: ATCAGAATCCCGGTGCCGAGGCCGCTCAATTGGTCGTAGACAGCTCTAGCACCGCTTAAACGCAATTACCCGCTGGTCAATGCGTTTTAACCGCCAAGGGGATTACTCCCTAGTCTCCAGGCACGTGTCAGATATATACATCGAT
binding result (AtLFYΔ40 (LEAFY) [2]): binds
